In assay [1] the target is T1, LRP5 (endogenous) (human, UniProt O75197 32-1615).
T1 construct: whole, on cells
Nature of the assay: TAP + mass spectrometry, HEK293 cells.

In assay [2] the target is T2, Lgr4 (endogenous, or expression construct whose tag is not stated) (human, UniProt Q9BXB1 25-951).
T2 construct: whole, on cells; Endogenous protein of HEK293T / LS174T cells in TAP-MS; also called endogenous Lgr4
Nature of the assay: TAP + mass spectrometry, HEK293 cells.

In assay [3] the target is T3, LRP6 (endogenous) (human, UniProt O75581 20-1613).
T3 construct: whole, on cells
Nature of the assay: TAP + mass spectrometry, HEK293 cells.

The target in assay [4] is T2, Lgr4 (endogenous, or expression …). Nature of the assay: TAP (anti-FLAG, anti-HA) + mass spectrometry, 293T cells incubated with the soluble tagged bait, Exp 8. The procedure:
Left panel (Exps 1-7): HEK293T cells were transiently transfected, and LS174T cells were stably, transfected with the indicated tagged proteins. Right panel (Exps 8-9): HEK293T cells were incubated with the indicated tagged soluble proteins at 1 μg/ml. Sequential immunoprecipitation was performed by anti-FLAG and anti-HA antibodies and the associated complexes were analysed by mass spectrometry. Number of assigned spectra, number of unique peptides and the MASCOT Protein Score are given for selected identified proteins.

T3 sequence (O75581 20-1613): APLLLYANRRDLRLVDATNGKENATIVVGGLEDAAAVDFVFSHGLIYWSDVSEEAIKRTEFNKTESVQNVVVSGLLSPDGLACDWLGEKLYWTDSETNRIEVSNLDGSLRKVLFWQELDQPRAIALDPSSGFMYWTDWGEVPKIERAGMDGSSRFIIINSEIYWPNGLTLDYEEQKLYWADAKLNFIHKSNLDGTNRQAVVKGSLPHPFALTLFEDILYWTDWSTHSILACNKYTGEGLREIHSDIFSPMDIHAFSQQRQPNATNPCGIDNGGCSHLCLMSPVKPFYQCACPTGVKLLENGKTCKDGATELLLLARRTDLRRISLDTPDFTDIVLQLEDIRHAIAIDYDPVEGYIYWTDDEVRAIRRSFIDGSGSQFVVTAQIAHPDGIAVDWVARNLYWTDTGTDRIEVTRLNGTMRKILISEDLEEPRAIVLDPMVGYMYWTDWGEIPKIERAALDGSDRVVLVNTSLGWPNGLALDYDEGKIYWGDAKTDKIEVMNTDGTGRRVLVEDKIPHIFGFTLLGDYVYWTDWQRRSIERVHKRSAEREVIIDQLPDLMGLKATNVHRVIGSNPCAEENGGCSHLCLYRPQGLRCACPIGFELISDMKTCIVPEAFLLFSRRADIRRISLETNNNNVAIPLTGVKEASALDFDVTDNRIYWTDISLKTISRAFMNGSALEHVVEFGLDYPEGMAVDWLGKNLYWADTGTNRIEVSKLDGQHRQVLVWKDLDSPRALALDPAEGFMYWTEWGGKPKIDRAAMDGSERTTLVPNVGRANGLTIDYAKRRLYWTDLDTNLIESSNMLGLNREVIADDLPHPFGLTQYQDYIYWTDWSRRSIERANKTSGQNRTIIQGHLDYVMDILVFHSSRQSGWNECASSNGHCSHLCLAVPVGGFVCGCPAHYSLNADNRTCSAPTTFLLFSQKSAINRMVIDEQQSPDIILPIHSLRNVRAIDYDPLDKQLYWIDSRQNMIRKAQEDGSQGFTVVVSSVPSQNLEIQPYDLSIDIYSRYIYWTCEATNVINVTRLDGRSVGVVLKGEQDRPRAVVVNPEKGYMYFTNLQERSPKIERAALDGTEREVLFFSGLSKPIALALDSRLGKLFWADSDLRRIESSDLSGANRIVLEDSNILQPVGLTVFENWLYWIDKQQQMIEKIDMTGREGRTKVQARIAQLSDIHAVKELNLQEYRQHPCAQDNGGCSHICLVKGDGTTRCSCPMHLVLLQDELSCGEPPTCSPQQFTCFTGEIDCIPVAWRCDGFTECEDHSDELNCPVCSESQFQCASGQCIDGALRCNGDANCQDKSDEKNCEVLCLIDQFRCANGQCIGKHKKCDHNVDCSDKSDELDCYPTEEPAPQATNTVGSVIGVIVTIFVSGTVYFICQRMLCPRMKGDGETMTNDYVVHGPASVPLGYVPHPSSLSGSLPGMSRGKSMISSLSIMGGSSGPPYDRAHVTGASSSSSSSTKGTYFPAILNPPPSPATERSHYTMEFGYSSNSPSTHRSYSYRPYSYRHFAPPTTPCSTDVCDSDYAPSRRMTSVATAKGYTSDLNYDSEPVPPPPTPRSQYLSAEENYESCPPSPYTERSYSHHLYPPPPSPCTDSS
T1 sequence (O75197 32-1615): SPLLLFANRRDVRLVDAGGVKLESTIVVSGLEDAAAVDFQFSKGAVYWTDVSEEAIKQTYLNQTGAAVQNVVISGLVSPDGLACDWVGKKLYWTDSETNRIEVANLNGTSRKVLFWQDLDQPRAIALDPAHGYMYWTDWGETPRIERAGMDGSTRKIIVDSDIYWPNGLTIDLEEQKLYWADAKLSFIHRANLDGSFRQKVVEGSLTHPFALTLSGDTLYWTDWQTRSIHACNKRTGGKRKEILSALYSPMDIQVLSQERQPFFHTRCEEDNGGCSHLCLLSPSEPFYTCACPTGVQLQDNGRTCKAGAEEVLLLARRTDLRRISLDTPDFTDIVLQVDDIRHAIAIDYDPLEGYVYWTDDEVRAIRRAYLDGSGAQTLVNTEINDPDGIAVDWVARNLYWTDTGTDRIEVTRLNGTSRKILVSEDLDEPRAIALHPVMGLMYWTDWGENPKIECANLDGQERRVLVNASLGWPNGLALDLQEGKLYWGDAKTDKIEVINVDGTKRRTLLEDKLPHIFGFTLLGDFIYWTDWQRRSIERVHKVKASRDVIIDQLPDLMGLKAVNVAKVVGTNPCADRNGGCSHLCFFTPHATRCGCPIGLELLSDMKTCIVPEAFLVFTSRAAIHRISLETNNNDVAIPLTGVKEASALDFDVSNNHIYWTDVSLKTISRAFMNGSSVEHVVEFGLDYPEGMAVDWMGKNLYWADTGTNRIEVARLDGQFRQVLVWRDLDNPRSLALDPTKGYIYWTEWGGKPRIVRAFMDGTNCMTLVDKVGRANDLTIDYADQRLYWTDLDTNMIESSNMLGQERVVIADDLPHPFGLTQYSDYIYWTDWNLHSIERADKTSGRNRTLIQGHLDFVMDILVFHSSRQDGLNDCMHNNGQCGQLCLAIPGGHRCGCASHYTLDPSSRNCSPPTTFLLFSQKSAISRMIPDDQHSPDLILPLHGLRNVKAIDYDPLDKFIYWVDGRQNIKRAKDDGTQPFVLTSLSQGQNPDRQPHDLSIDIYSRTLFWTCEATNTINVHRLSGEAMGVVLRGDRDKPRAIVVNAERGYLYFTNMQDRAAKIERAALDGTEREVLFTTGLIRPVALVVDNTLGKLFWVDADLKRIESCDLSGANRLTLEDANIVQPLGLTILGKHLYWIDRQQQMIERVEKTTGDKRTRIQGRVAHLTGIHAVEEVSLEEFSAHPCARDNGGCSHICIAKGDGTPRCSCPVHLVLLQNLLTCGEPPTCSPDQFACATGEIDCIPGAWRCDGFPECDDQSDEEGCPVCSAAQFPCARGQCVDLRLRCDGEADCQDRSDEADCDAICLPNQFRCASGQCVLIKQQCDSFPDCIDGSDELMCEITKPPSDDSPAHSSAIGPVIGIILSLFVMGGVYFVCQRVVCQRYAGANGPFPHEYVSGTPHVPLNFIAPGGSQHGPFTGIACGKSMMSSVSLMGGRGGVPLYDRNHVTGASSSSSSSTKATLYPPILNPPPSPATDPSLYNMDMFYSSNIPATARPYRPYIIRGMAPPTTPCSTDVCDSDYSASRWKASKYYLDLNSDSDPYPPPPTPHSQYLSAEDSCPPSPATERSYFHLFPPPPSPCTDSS

B1: FBXW5 (other, not shown: small tags and cut ends)
chain: MDEGGTPLLPDSLVYQIFLSLGPADVLAAGLVCRQWQAVSRDEFLWREQFYRYYQVARDVPRHPAAMSWYEEFQRLYDTVPCVEVQTLREHTDQVLHLSFSHSGYQFASCSKDCTVKIWSNDLTISLLHSADMRPYNWSYTQFSQFNKDDSLLLASGVFLGPHNSSSGEIAVISLDSFALLSRVRNKPYDVFGCWLTETSLISGNLHRIGDITSCSVLWLNNAFQDVESENVNVVKRLFKIQNLNASTVRTVMVADCSRFDSPDLLLEAGDPATSPCRIFDLGSDNEEVVAGPAPAHAKEGLRHFLDRVLEGRAQPQLSERMLETKVAELLAQGHTKPPERSATGAKSKYLIFTTGCLTYSPHQIGIKQILPHQMTTAGPVLGEGRGSDAFFDALDHVIDIHGHIIGMGLSPDNRYLYVNSRAWPNGAVVADPMQPPPIAEEIDLLVFDLKTMREVRRALRAHRAYTPNDECFFIFLDVSRDFVASGAEDRHGYIWDRHYNICLARLRHEDVVNSVVFSPQEQELLLTASDDATIKAWRSPRTMRVLQAPRPRPRTFFSWLASQRR
notes: TAP-MS bait
Regarding B1, the binding result in assay [1], in assay [2] and in assay [3] was “no binding” each time.

B2: FBXW4 (other, not shown: small tags and cut ends)
chain: MAAAAGEEEEEEEAARESAARPAAGPALWRLPEELLLLICSYLDMRALGRLAQVCRWLRRFTSCDLLWRRIARASLNSGFTRLGTDLMTSVPVKERVKVSQNWRLGRCREGILLKWRCSQMPWMQLEDDSLYISQANFILAYQFRPDGASLNRRPLGVFAGHDEDVCHFVLANSHIVSAGGDGKIGIHKIHSTFTVKYSAHEQEVNCVDCKGGIIVSGSRDRTAKVWPLASGRLGQCLHTIQTEDRVWSIAISPLLSSFVTGTACCGHFSPLRIWDLNSGQLMTHLGSDFPPGAGVLDVMYESPFTLLSCGYDTYVRYWDLRTSVRKCVMEWEEPHDSTLYCLQTDGNHLLATGSSYYGVVRLWDRRQRACLHAFPLTSTPLSSPVYCLRLTTKHLYAALSYNLHVLDFQNP
notes: TAP-MS bait
In the case of B2, the binding result in assay [1], in assay [2] and in assay [3] was “no binding” throughout.

B3: eEF2K (enzyme, not shown: small tags and cut ends)
chain: ADEDLIFRLEGVDGGQSPRAGHDGDSDGDSDDEEGYFICPITDDPSSNQNVNSKVNKYYSNLTKSERYSSSGSPANSFHFKEAWKHAIQKAKHMPDPWAEFHLEDIATERATRHRYNAVTGEWLDDEVLIKMASQPFGRGAMRECFRTKKLSNFLHAQQWKGASNYVAKRYIEPVDRDVYFEDVRLQMEAKLWGEEYNRHKPPKQVDIMQMCIIELKDRPGKPLFHLEHYIEGKYIKYNSNSGFVRDDNIRLTPQAFSHFTFERSGHQLIVVDIQGVGDLYTDPQIHTETGTDFGDGNLGVRGMALFFYSHACNRICESMGLAPFDLSPRERDAVNQNTKLLQSAKTILRGTEEKCGSPQVRTLSGSRPPLLRPLSENSGDENMSDVTFDSLPSSPSSATPHSQKLDHLHWPVFSDLDNMASRDHDHLDNHRESENSGDSGYPSEKRGELDDPEPREHGHSYSNRKYESDEDSLGSSGRVCVEKWNLLNSSRLHLPRASAVALEVQRLNALDLEKKIGKSILGKVHLAMVRYHEGGRFCEKGEEWDQESAVFHLEHAANLGELEAIVGLGLMYSQLPHHILADVSLKETEENKTKGFDYLLKAAEAGDRQSMILVARAFDSGQNLSPDRCQDWLEALHWYNTALEMTDCDEGGEYDGMQDEPRYMMLAREAEMLFTGGYGLEKDPQRSGDLYTQAAEAAMEAMKGRLANQYYQKAEEAWAQMEE
notes: TAP-MS bait
As to B3, the binding result in assay [1], in assay [2] and in assay [3] was “no binding” in each case.

B4: double (Flag-HA)-tagged version of human Dkk1 (Dkk1-FH) (ligand, UniProt O94907 32-266, looked up)
chain: TLNSVLNSNAIKNLPPPLGGAAGHPGSAVSAAPGILYPGGNKYQTIDNYQPYPCAEDEECGTDEYCASPTRGGDAGVQICLACRKRRKRCMRHAMCCPGNYCKNGICVSSDQNHFRGEIEETITESFGNDHSTLDGYSRRTTLSSKMYHTKGQEGSVCLRSSDCASGLCCARHFWSKICKPVLKEGQVCTKHRRKGSHGLEIFQRCYCGEGLSCRIQKDHHQASNSSRLHTCQRH
notes: not shown: Flag-HA double tag
B4: the binding result in assay [4] is reported as “no binding (tested: 1 µg/ml)”.

B5: FBXL2 (other, not shown: small tags and cut ends)
chain: MVFSNNDEGLINKKLPKELLLRIFSFLDIVTLCRCAQISKAWNILALDGSNWQRIDLFNFQTDVEGRVVENISKRCGGFLRKLSLRGCIGVGDSSLKTFAQNCRNIEHLNLNGCTKITDSTCYSLSRFCSKLKHLDLTSCVSITNSSLKGISEGCRNLEYLNLSWCDQITKDGIEALVRGCRGLKALLLRGCTQLEDEALKHIQNYCHELVSLNLQSCSRITDEGVVQICRGCHRLQALCLSGCSNLTDASLTALGLNCPRLQILEAARCSHLTDAGFTLLARNCHELEKMDLEECILITDSTLIQLSIHCPKLQALSLSHCELITDDGILHLSNSTCGHERLRVLELDNCLLITDVALEHLENCRGLERLELYDCQQVTRAGIKRMRAQLPHVKVHAYFAPVTPPTAVAGSGQRLCRCCVIL
notes: TAP-MS bait
Consider B5, for which the binding result in assay [1], in assay [2] and in assay [3] was “no binding” throughout.

B6: KCTD21 (other, not shown: small tags and cut ends)
chain: MSDPITLNVGGKLYTTSLATLTSFPDSMLGAMFSGKMPTKRDSQGNCFIDRDGKVFRYILNFLRTSHLDLPEDFQEMGLLRREADFYQVQPLIEALQEKEVELSKAEKNAMLNITLNQRVQTVHFTVREAPQIYSLSSSSMEVFNANIFSTSCLFLKLLGSKLFYCSNGNLSSITSHLQDPNHLTLDWVANVEGLPEEEYTKQNLKRLWVVPANKQINSFQVFVEEVLKIALSDGFCIDSSHPHALDFMNNKIIRLIRYR
notes: TAP-MS bait
Consider B6, for which the binding result in assay [1], in assay [2] and in assay [3] was “no binding” throughout.

B7: UCHL1 (enzyme, not shown: small tags and cut ends)
chain: MQLKPMEINPEMLNKVLSRLGVAGQWRFVDVLGLEEESLGSVPAPACALLLLFPLTAQHENFRKKQIEELKGQEVSPKVYFMKQTIGNSCGTIGLIHAVANNQDKLGFEDGSVLKQFLSETEKMSPEDRAKCFEKNEAIQAAHDAVAQEGQCRVDDKVNFHFILFNNVDGHLYELDGRMPFPVNHGASSEDTLLKDAAKVCREFTEREQGEVRFSAVALC
notes: TAP-MS bait
B7: the binding result in assay [1], in assay [2] and in assay [3] was “no binding” in each case.

B8: EMI1 (other, not shown: small tags and cut ends)
chain: MSRRPCSCALRPPRCSCSASPSAVTAAGRPRPSDSCKEESSTLSVKMKCDFNCNHVHSGLKLVKPDDIGRLVSYTPAYLEGSCKDCIKDYERLSCIGSPIVSPRIVQLETESKRLHNKENQHVQQTLNSTNEIEALETSRLYEDSGYSSFSLQSGLSEHEEGSLLEENFGDSLQSCLLQIQSPDQYPNKNLLPVLHFEKVVCSTLKKNAKRNPKVDREMLKEIIARGNFRLQNIIGRKMGLECVDILSELFRRGLRHVLATILAQLSDMDLINVSKVSTTWKKILEDDKGAFQLYSKAIQRVTENNNKFSPHASTREYVMFRTPLASVQKSAAQTSLKKDAQTKLSNQGDQKGSTYSRHNEFSEVAKTLKKNESLKACIRCNSPAKYDCYLQRATCKREGCGFDYCTKCLCNYHTTKDCSDGKLLKASCKIGPLPGTKKSKKNLRRL
notes: TAP-MS bait
Take B8: the binding result in assay [1], in assay [2] and in assay [3] was “no binding” in each case.

The values are drawn from patent US20140044713A1 (KONINKLIJKE NEDERLANDSE AKADEMIE VAN WETENSCHAPPEN, published 2014).
